Results: US20160199455

Tested on: T1, rBDD FVIII (recombinant B-domain deleted FVIII, REFACTO)
T1 sequence: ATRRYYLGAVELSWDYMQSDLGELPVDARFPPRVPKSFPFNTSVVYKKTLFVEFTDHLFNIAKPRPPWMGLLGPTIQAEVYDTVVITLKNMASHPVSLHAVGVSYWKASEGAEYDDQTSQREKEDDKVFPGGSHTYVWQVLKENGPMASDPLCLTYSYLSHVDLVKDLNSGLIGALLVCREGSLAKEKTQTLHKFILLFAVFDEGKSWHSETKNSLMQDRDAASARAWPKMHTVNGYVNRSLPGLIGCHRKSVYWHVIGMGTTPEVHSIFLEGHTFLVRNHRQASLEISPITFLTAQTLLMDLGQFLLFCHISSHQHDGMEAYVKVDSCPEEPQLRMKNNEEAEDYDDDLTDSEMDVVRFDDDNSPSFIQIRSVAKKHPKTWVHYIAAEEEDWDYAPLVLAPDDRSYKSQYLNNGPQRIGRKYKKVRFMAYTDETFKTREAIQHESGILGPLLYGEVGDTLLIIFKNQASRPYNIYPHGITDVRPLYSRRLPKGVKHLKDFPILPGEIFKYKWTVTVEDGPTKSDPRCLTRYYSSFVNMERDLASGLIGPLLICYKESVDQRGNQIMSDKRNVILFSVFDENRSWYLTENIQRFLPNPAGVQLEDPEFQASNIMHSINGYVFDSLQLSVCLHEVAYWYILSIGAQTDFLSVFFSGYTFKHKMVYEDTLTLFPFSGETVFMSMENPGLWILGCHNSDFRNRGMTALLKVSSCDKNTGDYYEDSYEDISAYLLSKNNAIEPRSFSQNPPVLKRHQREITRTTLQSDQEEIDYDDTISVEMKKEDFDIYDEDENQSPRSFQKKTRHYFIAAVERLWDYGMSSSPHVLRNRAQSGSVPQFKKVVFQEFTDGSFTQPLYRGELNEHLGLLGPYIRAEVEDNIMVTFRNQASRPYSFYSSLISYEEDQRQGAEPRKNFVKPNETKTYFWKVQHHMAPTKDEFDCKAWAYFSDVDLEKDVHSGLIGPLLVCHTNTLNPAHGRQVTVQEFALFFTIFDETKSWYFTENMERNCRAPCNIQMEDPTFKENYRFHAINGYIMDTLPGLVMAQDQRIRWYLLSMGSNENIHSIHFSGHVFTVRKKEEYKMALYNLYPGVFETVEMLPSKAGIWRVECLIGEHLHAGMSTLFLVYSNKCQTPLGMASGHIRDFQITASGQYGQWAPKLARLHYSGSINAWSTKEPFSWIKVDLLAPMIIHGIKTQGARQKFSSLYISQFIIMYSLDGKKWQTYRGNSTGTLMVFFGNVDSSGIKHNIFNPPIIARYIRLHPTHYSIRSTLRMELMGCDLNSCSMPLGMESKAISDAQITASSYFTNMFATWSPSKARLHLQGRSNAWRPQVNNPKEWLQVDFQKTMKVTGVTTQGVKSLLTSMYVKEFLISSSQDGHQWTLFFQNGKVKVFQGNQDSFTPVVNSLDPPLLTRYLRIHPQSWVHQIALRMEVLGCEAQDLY

Substance: Factor X (FX)
- Km (activation of Factor X by the Xase complex): 0.051 µM
- Vmax (activation of Factor X by the Xase complex): 73.5 nM/min

Substance: activated Factor IX (FIXa)
- Vmax (FXa generation, varying FIXa): 4 nM/min
